According to the supplement of paper PMC10567573:

B1: LRRC45 (parent)
chain: DLSAANEKNLLLQNQVDELERKFR
B2: RHOBTB2 (parent)
chain: LYTGELDENERDLMHIAHIAELLE

Variants of: B1
Experiment: protein stability index of a GFP-peptide fusion (GPS, HEK-293T) (PSI 1-6); higher = more stable
Settings: c terminus: a fixed tail appended
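Note: lentivirally expressed fusions sorted by FACS into six bins by GFP to DsRed ratio, PSI derived from sequencing read proportions per bin multiplied by bin number.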

Protein stability index of substitutions, site by site:
R24: E 4.71; C 4.36; T 4.14; I 3.85; L 3.78
L11: G 4.32; A 4.42
E7: Q 3.63; C 3.78; D 4.73; Y 2.98; R 3.84; A 3.5; I 3.2
K8: M 4; V 3.85; L 3.6; W 3.6
A4: E 4.53; W 3.78; R 4.07; I 3.81; D 4.67
N9: M 4.24; A 4.77; L 3.54; W 3.79; C 4.23; Y 3.67; G 3.93; H 4.2
E18: C 3.4; W 3.36; L 3.31; H 3.35; P 3.91
D1: K 4.19; T 3.83; P 4.17
Q13: M 3.71; E 4.71; A 4.25; N 3.68
D17: H 2.99; C 3.24; V 3.4
L12: F 4.09
K22: A 4.27; E 4.26; F 3; W 3.14; D 4.31; S 4.15
Q15: R 3.5; P 3.71; L 3.01
A5: H 4.16; V 3.95; R 3.67; W 3.34; D 3.69; I 4.02
L10: N 4.17; I 3.58; K 4; W 3.89; T 4.26
L19: I 4.24
S3: I 3.51; T 3.62; L 3.51
R21: D 4.28; P 4.2; T 4; I 3.55
V16: L 4.05; T 3.66; F 3.38
N14: G 4.11; C 4; T 3.81
F23: I 3.6; S 4.36; V 3.91; W 3.13
N6: D 5.02; R 4.61; W 3.37; A 5.2; P 4.62
E20: G 3.22

Variants of: B2
Experiment: as above
Settings: c terminus: a fixed tail appended

Protein stability index of substitutions, site by site:
A20: S 3.08; G 3.3; Q 3.72; D 3.34; M 2.01; H 3.54; L 1.61; F 1.97; T 2.76; Y 2.53
R11: S 2.5; C 2.66; W 2.04; L 1.77; H 2.39; E 2.44; G 3.32; A 2.27
E5: F 2.71; Y 1.9; C 1.67; K 2.75; A 2.12; R 3.45; V 1.81; L 2.02; W 2.3; S 2.54; G 2.34; N 2.23
G4: E 2.32; H 1.99; D 2.53; P 2.46; F 1.93; K 1.89; I 2.56; V 1.44; Q 2.7; C 1.87; L 1.76; R 2.29; T 2.25; S 2.42
L1: T 2.1; D 3.08; G 2.53; C 2.67; K 2.49; N 2.8; Q 3.08; H 2.61; W 2.43; R 2.93; P 2.92; V 2.8
Y2: T 3.44; R 3.21; I 2.54; H 3.8; A 2.73; V 3.45; C 2.04
M14: S 3.8; I 2.84; W 1.82; Y 2.01; V 2.16; A 2.39; C 2.45; N 3.52
I19: K 4.3; S 3.26; V 3.1; R 4.17; T 3.79; A 3.38; M 2.52; F 2.67; Q 3.37; N 4.47
L6: T 3.57; S 2.81; R 2.79; Y 2.6; F 2.46; V 2.38; K 3.31; Q 3.86; A 3.38; W 2.44; C 2.91; N 3.49
L22: M 2.18; A 2.96; C 2.79; V 2.72; K 3.67; D 4.26; T 3; I 2.56; Y 3.03; W 2.52
E21: T 1.75; N 2.48; Y 1.76; Q 2.32; L 1.92; P 3.3; W 2.1; V 1.04; I 1.77; M 2.12; C 2.37; S 1.7; K 2.07; H 1.8
A17: Y 1.93; E 2.17; M 1.41; Q 2.95; D 3.28; F 2.38; H 3.58; W 1.87; L 1.45; P 3.85; N 2.92
E10: N 2.83; L 2.24; R 2.58; S 1.98; A 2.58; M 1.68; Q 2.61
D7: V 2.46; Q 1.94; P 2.52; K 2.33; W 1.64; H 1.62; Y 1.89; R 2.25; T 2.16; E 2.41; S 2.48
E24: F 1.79; V 1.97; W 1.91; Y 2.04; S 2.22; P 3.33; M 2.17; H 2.21; R 2.11; A 3.44; K 2.12
L13: R 3.06; P 4.82; Q 3.29; M 2.92; S 3.12; G 3.74; C 3.45; D 3.12; K 3.1; H 3.58; W 2.65; E 3.44
N9: M 1.86; T 2.71; V 1.89; F 1.34; S 2.19; Q 2.25; G 2.82; C 1.85; E 3.15
H18: I 2.65; T 1.95; M 2.71; R 2.38; C 2.41; G 3.76; K 3.54
H15: F 2.46; L 1.5; M 1.86; T 1.53; Q 2.4; E 2.76; D 3.36; N 2.63; G 2.78; A 1.74; P 3.23
D12: I 3.03; N 3.12; S 2.56; L 3.07; V 2.96; P 2.43; Q 2.4; T 2.43
T3: F 3.07; D 3; P 2.14; G 1.91; V 2.21; I 2.15
I16: S 3.9; C 3.77; D 4.12; H 3.76; F 2.71; T 3.62; W 3.16; R 4.43; N 3.54; Q 3.87; Y 2.93
L23: Q 4.41; G 4.05; D 4.28; V 2.62; K 3.93; C 3.58; I 2.66; E 5.05; Y 3.31; A 4.33; H 3.97; F 2.41; N 4.01
E8: V 2.9; F 1.96; N 2.21; A 2.08; T 2.4; H 2.39; I 1.62; G 1.91; C 2.05
